Data on 41 sequences can be found in the nanobody polyreactivity screen of Harvey et al. (2022).

This data set can be described thus: yeast display, Sf9 membrane polyspecificity reagent, FACS + sequencing; frameworks hold sequencing errors. Summed up: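 In a synthetic yeast display library (Saccharomyces cerevisiae BJ5465), nanobody expression was induced with galactose for 36–48 hours. FACS gates were set low and high (top ~1%) using anti-HA fluorescence for expression and streptavidin fluorescence for binding of the Sf9 membrane reagent. Each polyreactivity label is drawn from the gate of origin.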
Turning to “QVQLVESGGGLVQAGGSLRLSCAASGRTFNGYAMGWYRQAPGKERELVASISRDGSTNYADSVKGRFTISRDNAKNTVYLQMNSLKPEDTAVYYCAADIWYYRYPIYYYSYDYWGQGTQVTVSS”, the “polyreactivity (PSR sort gate)” value is on record as “low polyreactivity”.

Consider “QVQLVESGGGLVQAGGSLRLSCAASGRTFNHNPMRWYRQAPGKERELVAAISYSGGGTYYADSVKGRFTFSRDNAKNSVYLQMNSLKPEDTAVYFCAAYPVRGAYGYWGQGTQVTVSS”, for which the “polyreactivity (PSR sort gate)” value is given as “low polyreactivity”.

Take “QVQLVESGGGLVQAGGSLRLSCAASGRTFNINAMGWYRPAPGKERELVASISWGGGRTYSADSVKGRFTISRDNAKNTVYLQKNSLKPEDPAVYYCAADYAGNKGVPYYYKYNYWGQGTQVTVSS”: the “polyreactivity (PSR sort gate)” value is “high polyreactivity”.

Take “QVQLVESGGGLVQAGGSLRLSCAASGRTFNIYAMGWYRQAPGKERELVAAITFTGGNTYYADSVKGRFTISRDNAKNTVYLQMNSLKPEDTAVYYCNKRLKWRSYDYWGQGTQVTVSS”: the “polyreactivity (PSR sort gate)” value is given as “low polyreactivity”.

Regarding “QVQLVESGGGLVQAGGSLRLSCAASGRTFNRNAMGWYRQAPRKERELVAAISRGGTTSYADSVKGRFTISRDNAKNTVYLQMNSLQPEDTAVYYCAAEPYIQWVYYRGNGRRYGYWGQGTQVTVSS”, the “polyreactivity (PSR sort gate)” value is “high polyreactivity”.

As for “QVQLVESGGGLVQAGGSLRLSCAASGRTFNRYAMGWYRQAPGKEREFVASITRSGGSTYYADSVKGRFTISRDNAKNTVYLQMNSLKPEDTAVYYCAAQLRYKYDYWGQGTQVTVSS”, the “polyreactivity (PSR sort gate)” value is given as “high polyreactivity”.

Turning to “QVQLVESGGGLVQAGGSLRLSCAASGRTFNSHVMRWYRQAPGKERELVAAISSRGGGTYYADSVKGRFTISRDNAKNTVYLQMNSLNPEDTAVYYCITVVSRSYRDGPPDPYDSWGQGTQVTVSS”, the “polyreactivity (PSR sort gate)” value is listed as “high polyreactivity”.

For the sequence “QVQLVESGGGLVQAGGSLRLSCAASGRTFNSYAMGWYRQAPGKERELVASISSGGSTYYADSVKGRFTLSRDNAKHTDYLQMNSLKPEDTAVYYCAAKSVAYYSYFRRDYWGQGTQVTVSS”, the “polyreactivity (PSR sort gate)” value is “low polyreactivity”.

“QVQLVESGGGLVQAGGSLRLSCAASGRTFNVYAMGWYRQAPGKETELVAVITNGGSTNYADSVKGRFTISRDNAKNTVYFQMNSLKPEDTAVYYCAAREDLYLYYNGQRVQYDYCGQGTQVTVSS”: the “polyreactivity (PSR sort gate)” value is given as “low polyreactivity”.

For the sequence “QVQLVESGGGLVQAGGSLRLSCAASGRTFNWNAMGWYRQAPGKESEFVADISGRGGSTYYADSVKGRFTISRDNAKNTVYLQMNSLKPEETAVYYCAARPRFLRASVEFDYWGQGTQVTVSS”, the “polyreactivity (PSR sort gate)” value was “high polyreactivity”.

For “QVQLVESGGGLVQAGGSLRLSCAASGRTFNWYAMGWYRQTPGKERELVAGITRIGTTTYYADSVKGRFTISRDNAKITVYLQMNSLKPEDTAVYYCASDQRKLGADFDSWGQGTQVTVSS”, the “polyreactivity (PSR sort gate)” value was “high polyreactivity”.

As to “QVQLVESGGGLVQAGGSLRLSCAASGRTFNYYAMGWYRQAPGKERELVAAISWGGGRTYYADSVKGRFTISRDNAKNTVYFQMNSLKPEDTAVFDCAARYLQLGLAYYYWGQGTQVTVSS”, the “polyreactivity (PSR sort gate)” value is “high polyreactivity”.

As for “QVQLVESGGGLVQAGGSLRLSCAASGRTFNYYAMGWYRQAPGKERELVAAISWSGTPTYYADSVKGRFTISRDNAKNTVYLQMNSLKPEDTAVYYCAAYLVSYPRGNYIRYDYWGQGTQVTVSS”, the “polyreactivity (PSR sort gate)” value was “low polyreactivity”.

For “QVQLVESGGGLVQAGGSLRLSCAASGRTFPDNAMGWYRQEPGKERELVAVINWGGTSTYYADSVKGRFTISRDNAKNTFYLQMNSLKPEDTAVYYCAARARYPRVGYNYWGQGTQVTVSS”, the “polyreactivity (PSR sort gate)” value is on record as “high polyreactivity”.

As for “QVQLVESGGGLVQAGGSLRLSCAASGRTFPFYAMGWYRQPPAKERELVAVITWRGSNTYADSVKGRFTISRDNAKNTVYLQMNSLKPEVTAVYYCAADAWRSYGYRAYDYWGQVTQVTVSS”, the “polyreactivity (PSR sort gate)” value is given as “low polyreactivity”.

As for “QVQLVESGGGLVQAGGSLRLSCAASGRTFPGNAMGWYRQAPGKERELVAAISSRGGSTYYADSVKGRFTISRDNAKYTVYFQMNSLKPEDTALYYCARRYLPYGGYYYWGQGTQVTVSS”, the “polyreactivity (PSR sort gate)” value was “high polyreactivity”.

On to “QVQLVESGGGLVQAGGSLRLSCAASGRTFPGNAMGWYRQAPGKERELVATISSGGTTNYADSVKGRFTISRDNAKTTVYLQMNSLKPEDTAVYYCATDTYHHKADYEYWGKGTQVTVSS”, for which the “polyreactivity (PSR sort gate)” value is “low polyreactivity”.

As to “QVQLVESGGGLVQAGGSLRLSCAASGRTFPGNAMGWYRQAPGKERELVATISSGGTTYYADSVKGRFTISRDNAKNTVYLQMNSLKPEDTAVYYCATDTYHHKADYEYWGQGTQVSVSS”, the “polyreactivity (PSR sort gate)” value was “low polyreactivity”.

Consider “QVQLVESGGGLVQAGGSLRLSCAASGRTFPGYAMGWYRQAPGKERELVAAISSSGGSTYYADSVKGRFTISRDNAKNTVYLQMNSLKPEDTAVYYCNAAYRGRLYSWRYGYDYWGQGTQVTVSS”, for which the “polyreactivity (PSR sort gate)” value was “high polyreactivity”.

Consider “QVQLVESGGGLVQAGGSLRLSCAASGRTFPINTMGWYRQAPGKEREFVAAITLGGRTYYADSVKGRFTISRDNAKNTVYLQMNSLKPEDTAVYYCNARTYVRRPLGYWGQGTQVTVSS”, for which the “polyreactivity (PSR sort gate)” value is “high polyreactivity”.

As for “QVQLVESGGGLVQAGGSLRLSCAASGRTFPKYAMGWYRQATGKERELVAAISSSGGNTYYADSVKGRFTISRDKAKTTVYLQMNSLTPEDTAVYYCAARLPRGAYYYWGQGTQLTVSS”, the “polyreactivity (PSR sort gate)” value is reported as “high polyreactivity”.

Consider “QVQLVESGGGLVQAGGSLRLSCAASGRTFPNVMGWYRQAPGKERELVAAISSSVGSTSYADSVKGRFTISRDNAKNTVYLQMNSLKPEDTAVYYCAARYYYRDWVGIISTYYYWGQGTQVTVSS”, for which the “polyreactivity (PSR sort gate)” value is given as “high polyreactivity”.

On to “QVQLVESGGGLVQAGGSLRLSCAASGRTFPPYAMGWYRQAPGKERELVAAISRRAGTTYYADSVKGRFTISRDNAKNTVYLQMNSLKPEDTAVYYCAALTESSSYGYWGQGTQVTVSS”, for which the “polyreactivity (PSR sort gate)” value is “low polyreactivity”.

“QVQLVESGGGLVQAGGSLRLSCAASGRTFPPYAMGWYRQAPGKERELVAAISSDGSTYADSVKGRFTISRDNAKNTVYLQMNSLKPEDTAVYYCAVDYTYSYRKHFGHILYSWGQGTQVTVSS”: the “polyreactivity (PSR sort gate)” value is reported as “low polyreactivity”.

For the sequence “QVQLVESGGGLVQAGGSLRLSCAASGRTFPRYAMGWYRQAPGKERELVAAISGTGGSTYYADSVKGRFTISRDNAKNTVYLQMNSLKPEDTAVYYCAAAFRDGFTRRYGYWGQGTQVTVSS”, the “polyreactivity (PSR sort gate)” value is “high polyreactivity”.

As for “QVQLVESGGGLVQAGGSLRLSCAASGRTFPRYAMGWYRQAPGKERELVAAISVRAGITYYADSVKGRFTISRDNAKNTVYLQMNSLKPEDTAVYYCAKSVRYPASDYWGQGTQVTVSS”, the “polyreactivity (PSR sort gate)” value is reported as “low polyreactivity”.

Consider “QVQLVESGGGLVQAGGSLRLSCAASGRTFPSYAMGWYRQAAGKERELVAAITVSGGNTYYADSVKGRFTISRDNAKNTVYLQMNSLKPEDTAVYYCNTASYVSWYVHYYYWGQGTQVTVSS”, for which the “polyreactivity (PSR sort gate)” value is given as “low polyreactivity”.

With “QVQLVESGGGLVQAGGSLRLSCAASGRTFPSYVMGWYRQAPGKERELVAAINNGVSTNYADSVKGRYTISRDNAKNTVYLQMNSLNPEDTADYYCAAEVVAQMNYCGQGTQVTVSS”, the “polyreactivity (PSR sort gate)” value is “low polyreactivity”.

As to “QVQLVESGGGLVQAGGSLRLSCAASGRTFPTNMGWYRQAPGKERELVATITGGGGSTIYADSVKGRFTISRDNAKNTVYLQMNSLKPEDTAVYYCAKTLSPEGVPYDYWGQGTQVTVSS”, the “polyreactivity (PSR sort gate)” value is “low polyreactivity”.

Consider “QVQLVESGGGLVQAGGSLRLSCAASGRTFPTYAMGWYRQAPGKERELVATISYNGGRTYYADSVKGRFTISRDNAKNTVYLQMNSLKPEDTAVYDCNAVVYVVGDFDYWGQGTQVTVSS”, for which the “polyreactivity (PSR sort gate)” value was “high polyreactivity”.

On to “QVQLVESGGGLVQAGGSLRLSCAASGRTFPVNGMGWYRQAPGKERELVAAITGGGSTNYADSVKGRFTISRDNAKNTVYLQMNSLKPEDTAVYYCAAGSYSRYLYSLYFDFDYWGQGTQVTVSS”, for which the “polyreactivity (PSR sort gate)” value is given as “low polyreactivity”.

Take “QVQLVESGGGLVQAGGSLRLSCAASGRTFPVYAMGWYRQAPGKEREFVAAISYRTGSTYYADSVKGRFTISRDHAKNTVYLQMNSLKPEDTAVYYCAARVSWYYTFYSWGQGTQVTVSS”: the “polyreactivity (PSR sort gate)” value is on record as “high polyreactivity”.

As for “QVQLVESGGGLVQAGGSLRLSCAASGRTFPYNAMGWYRQAPGKERELVAAITSSGSSTYYADSVKGRFTISRDNAKNTVYLQMNSLKPEDTAVYYCAADSYLIVGSSLVWQGYYYWGQGTQVTVSS”, the “polyreactivity (PSR sort gate)” value was “low polyreactivity”.

In the case of “QVQLVESGGGLVQAGGSLRLSCAASGRTFPYNAMGWYRQAPGNERELVAGISSGGTTTYADSVKGRFTISRDNAKNTVYLQMNSLKPEVTAVYYCAATVIIFDHSRPGWDDYDYWGQGTQVTVSS”, the “polyreactivity (PSR sort gate)” value is reported as “low polyreactivity”.

With “QVQLVESGGGLVQAGGSLRLSCAASGRTFPYNFMGWYRQAPGKERELVAGITGSGDSTFYADSVKGRFTISRDNAKNTVYLQMNSLKPEDTAVYYCAARYRTLNDGYNRNYWGQGTQVTVSS”, the “polyreactivity (PSR sort gate)” value was “low polyreactivity”.

Consider “QVQLVESGGGLVQAGGSLRLSCAASGRTFPYYAMGWYRQAPGKERELVAAISRRGASTYYADSVKGRFTISRDNAKNTVYLQMNSLKPEDTAVYYCNAVYRGYYSGELDYWGQGTQVTVSS”, for which the “polyreactivity (PSR sort gate)” value is reported as “high polyreactivity”.

For “QVQLVESGGGLVQAGGSLRLSCAASGRTFPYYAMGWYRQAPGKERELVAVISSADSTNYADSVKGRFTISRDNAKNTVYLQMNSLKPEDTAVYYCAADAVYYGDDYWGQCTQVTVSS”, the “polyreactivity (PSR sort gate)” value was “low polyreactivity”.

As to “QVQLVESGGGLVQAGGSLRLSCAASGRTFPYYAMGWYRQAPGKERELVAVITSGASTYYADSVKGRFTISRDNAKNTVYLQMNSLKPEDTAVYYCNARYSWKYDYWGQGTQVTVSS”, the “polyreactivity (PSR sort gate)” value is on record as “high polyreactivity”.

Take “QVQLVESGGGLVQAGGSLRLSCAASGRTFPYYAMGWYRQATGKERELVAAITTNDGDTYYADSVKGRFTISRDNAKNTVYLQMNSLKPEDTAVYYCSADSGSTSEYEYWGQGTQVTVSS”: the “polyreactivity (PSR sort gate)” value is “low polyreactivity”.

As to “QVQLVESGGGLVQAGGSLRLSCAASGRTFQGNTMGWYRQAPGKEREFVAAMSSRGGSTYYADSVKGRFTISRDNAKNTVYLQMNRLKPEDTAVYYCDARFSHGYDYWGQGTQVTVSS”, the “polyreactivity (PSR sort gate)” value is given as “high polyreactivity”.

For “QVQLVESGGGLVQAGGSLRLSCAASGRTFQGNTMGWYRQAPGKERELVAAITWRGTTTYYADSVKGRFTISRDNAKNTVYVQMNSLKPEDTAVYYCAAGHALHSGDEFGYWGQGTQVTVSS”, the “polyreactivity (PSR sort gate)” value is on record as “low polyreactivity”.
